Assay results as given in paper PMC4520616, “Biochemical Characterization of the Split Class II Ribonucleotide Reductase from Pseudomonas aeruginosa” (PLoS ONE, 2015).

B3: NrdJa subunit of the split class II ribonucleotide reductase from Pseudomonas aeruginosa (enzyme, UniProt Q9HT76 1-734, looked up)
chain: MLRTVAGFGRPNNHREVNQRMAKTDARSPRTERGTIALQDASQDIWDKKYRLKSKDGTPVDASVDGTWQRVARALADVEDKASREHWYGRFLWALRNGAIPAGRIISNAGALGHKPATSTINCTVSGTIQDSMDNILEKVHEAGLTLKAGCGIGYEFSTLRPRGAYVSGAGAYTSGPLSFMDIYDKMCFTVSSAGGRRGAQMGTFDVSHPDVREFIRAKREDGRLRQFNLSLLITDQFMQAVEQDADWPLVFPVHVKERDEIDLDDPNAVVWREWPIQDDYVQRADGLVACKVYGQVRARHLWDMIMVSTYDYAEPGFILIDRVNELNNNWWCEAIRATNPCGEQPLPPYGSCLLGSVNLTCFVEQPFGDEARFDWDRFREVVRVFTRMLDNVVEINGLPLEQQRQEILGKRRHGMGFLGLGSTLTLLKLRYGSPEACVFTEEVAREMALVGWEVALELAREKGPAPILAQDYEVTAEMLRKRPEMAADGYKAGDRIRGSVLHAKYSRYMQRVAEHAPELIEALAETGARFTHHSSIAPTGTISLSLANNASNGIEPSFAHHYSRNLIREGRKTKEKVEVYSYELLAYRTLVNAQALPDSDDPARRLPDYFITADSVTPAQHMDIQAAAQKWVDSSISKTANVPTDYPFEDFKDIYRYAWHQGLKGCTTFRFNPEAFQGVLVKESDLEKTRYRFELEDGSVVEFKGNEQVEYDGEIHTAANLFDALKEGYYGKY
modifications: biotin linker (0.15 biotin linker/NrdJa monomer) only where NrdJa was immobilised on the streptavidin chip for SPR
notes: NrdJa, large subunit of the split class II ribonucleotide reductase (NrdJ) of Pseudomonas aeruginosa; 734 residues in PA; the nrdJa open reading frame was cloned into pET22; Monomer or dimer according to the allosteric effector (GEMMA); also called PA NrdJa

What was measured:
[1] = molecular target: B3; assay: SPR; biotinylated NrdJb immobilised on streptavidin chip, 0-2 uM NrdJa injected; 30 mM Tris-HCl pH 7.0, 10 mM MgCl2, 0.025% P20, 2 mM DTT; with 0.5 mM CTP; steady state fit; apparent Kd; settings: both partners purified
[2] = molecular target: B3; assay: SPR; biotinylated NrdJb immobilised on streptavidin chip, 0-2 uM NrdJa injected; 30 mM Tris-HCl pH 7.0, 10 mM MgCl2, 0.025% P20, 2 mM DTT; with 40 uM AdoCbl; steady state fit; apparent Kd; settings: both partners purified
[3] = molecular target: B3; assay: SPR; biotinylated NrdJb immobilised on streptavidin chip, 0-2 uM NrdJa injected; 30 mM Tris-HCl pH 7.0, 10 mM MgCl2, 0.025% P20, 2 mM DTT; with 0.5 mM dATP + 0.5 mM CTP + 40 uM AdoCbl; steady state fit; apparent Kd; settings: both partners purified
[4] = molecular target: B3; assay: SPR; biotinylated NrdJb immobilised on streptavidin chip, 0-2 uM NrdJa injected; 30 mM Tris-HCl pH 7.0, 10 mM MgCl2, 0.025% P20, 2 mM DTT; with 0.5 mM dATP; steady state fit; apparent Kd; settings: both partners purified
[5] = molecular target: B3; assay: cell-based or functional assay
[6] = molecular target: B3; assay: SPR; biotinylated NrdJb immobilised on streptavidin chip, 0-2 uM NrdJa injected; 30 mM Tris-HCl pH 7.0, 10 mM MgCl2, 0.025% P20, 2 mM DTT; with 0.5 mM CTP + 40 uM AdoCbl; steady state fit; apparent Kd; settings: both partners purified
[7] = molecular target: B3; assay: SPR; biotinylated NrdJb immobilised on streptavidin chip, 0-2 uM NrdJa injected at 30 ul/min; 30 mM Tris-HCl pH 7.0, 10 mM MgCl2, 0.025% P20, 2 mM DTT; no additive; steady state fit; apparent Kd; settings: both partners purified
[8] = substrate: Nc1ccn([C@@H]2O[C@H](COP(=O)(O)OP(=O)(O)OP(=O)(O)O)[C@@H](O)[C@H]2O)c(=O)n1; assay: 3H-CTP reduction assay, Michaelis-Menten fit; format: biochemical, Pseudomonas aeruginosa; settings: 1 mM ATP, 100 μM AdoCbl, 30 mM DTT, 10 mM MgCl2, pH 7.5, labelled compound
[9] = molecular target: the molecule itself; assay: gas phase electrophoretic macromolecule analysis (GEMMA); 0.02 mg/ml NrdJa in 40 mM ammonium acetate pH 7.8, 0.005% Tween-20, 2 mM DTT; with 50 uM dTTP and 1:1 Mg2+

B1: NrdJb subunit of the split class II ribonucleotide reductase from Pseudomonas aeruginosa (enzyme, UniProt Q9HT77 1-229, looked up)
chain: MSAVKITQKIKGFKVVNEAEEQALAAAAEAASVVQMDETLERPDTLIGATYKIKSPLFEHALYVTINDMVLNAGTAHEQRRPFEIFINSKNMDHFQWIVALTRIMSAVFRKGGDCTFLVEELKAVFDPRGGYLKKGGIYMPSIVAEIGGVLERHLTAIGLLRGPELDEEQRLFLAEKRAAYEAAQGTSKVEPGEGFPAGAQLCGKCNSMAVVQMDGCATCLNCGHSKCG
modifications: biotin linker (0.05 biotin linker/NrdJb monomer) where NrdJb was immobilised on the streptavidin chip for SPR
notes: NrdJb, small subunit of the split class II ribonucleotide reductase (NrdJ) of Pseudomonas aeruginosa; 229 residues in PA; the gene encoding NrdJb was custom synthesised with codon optimisation for E. coli and cloned into pET21; No cleavage of the tag is described; Probably the whole 229-residue protein; also called PA NrdJb; His-tagged NrdJb; source: E. coli BL21(DE3), pET21, codon-optimised …
[1]
  Kd: 360 ± 90 nM
[2]
  Kd: 680 ± 100 nM
[3]
  Kd: 54 ± 12 nM
[4]
  Kd: 91 ± 17 nM
[5]
  stoichiometry from the enzyme activity titration (activity leveled off at approximately equimolar concentration of NrdJa and NrdJb): 1
[6]
  Kd: 300 ± 190 nM
[7]
  Kd: 690 ± 60 nM

B2: NrdJa-NrdJb (split class II ribonucleotide reductase, PA NrdJ) (Pseudomonas aeruginosa PAO1) (protein)
chain: MLRTVAGFGRPNNHREVNQRMAKTDARSPRTERGTIALQDASQDIWDKKYRLKSKDGTPVDASVDGTWQRVARALADVEDKASREHWYGRFLWALRNGAIPAGRIISNAGALGHKPATSTINCTVSGTIQDSMDNILEKVHEAGLTLKAGCGIGYEFSTLRPRGAYVSGAGAYTSGPLSFMDIYDKMCFTVSSAGGRRGAQMGTFDVSHPDVREFIRAKREDGRLRQFNLSLLITDQFMQAVEQDADWPLVFPVHVKERDEIDLDDPNAVVWREWPIQDDYVQRADGLVACKVYGQVRARHLWDMIMVSTYDYAEPGFILIDRVNELNNNWWCEAIRATNPCGEQPLPPYGSCLLGSVNLTCFVEQPFGDEARFDWDRFREVVRVFTRMLDNVVEINGLPLEQQRQEILGKRRHGMGFLGLGSTLTLLKLRYGSPEACVFTEEVAREMALVGWEVALELAREKGPAPILAQDYEVTAEMLRKRPEMAADGYKAGDRIRGSVLHAKYSRYMQRVAEHAPELIEALAETGARFTHHSSIAPTGTISLSLANNASNGIEPSFAHHYSRNLIREGRKTKEKVEVYSYELLAYRTLVNAQALPDSDDPARRLPDYFITADSVTPAQHMDIQAAAQKWVDSSISKTANVPTDYPFEDFKDIYRYAWHQGLKGCTTFRFNPEAFQGVLVKESDLEKTRYRFELEDGSVVEFKGNEQVEYDGEIHTAANLFDALKEGYYGKY
notes: E. coli BL21(DE3); NrdJa untagged in pET22, 734 residues; NrdJb 229 residues, codon-optimised, 6xHis in pET21 (C-terminal in results, N-terminal in methods); proposed (NrdJa-NrdJb)2; with Class II (cobalamin-dependent) ribonucleotide-diphosphate reductase subunit, NrdJb
[8]
  Km: 220 ± 60 µM

## B3
[9]
  stoichiometry N: 2
